B1: HDV Ribozyme (parent)
chain: GGCCGGCAUGGUCCCAGCCUCCUCGCUGGCGCCGGCUGGGCAACAUUCCGAGGGGACCGUCCCCUCGGUAAUGGCGAAUGGGACCCA

In the series the parent is B1. In words: self-cleavage, relative activity (ratio to wild type); higher = more cleavage; co-transcriptional.
With GGCCGGCAUGGUCCCAGCCUCCUCGCUGGCGCCGGCUGGGCAAUAUUCCGAGGGGACCGUCCGCUCGGUAAUGGCGAAUGGGACCCA [C44U C63G], the self-cleavage was found to be 0.594.
With GGCCGGCAUGGUCCCAGCCUCCUCGCUGGCGCCGGCUGGGCAACAUUCCGAGGGGACCGUCCCCUCGGUAAUGGCGCAUGGGACUCA [A77C C85U], the self-cleavage is 0.192.
Turning to GUCCGGCAUGGUCCCAGCCUCCUCGCUGGCGCUGGCUGGGCAACAUUCCGAGGGGACCGUCCCCUCGGUAAUGGCGAAUGGGACCCA [G2U C33U], the self-cleavage was 0.0422.
Turning to GGCCGGCAUGGUCCCAGCCUCCUCGCUGGCGCCGGCUGGGCAAUAUUCCGAGGGGACCGUCCCCUCAGUAAUGGCGAAUGGGACCCA [C44U G67A], the self-cleavage came out at 0.82.
The value for GGCCGGCAUGGUCCCAGCCUCCUCGCUGGCGCCGGCUGGACAACAUUCCGAGGGGACCGUCCCCUCGGUAAUGGCGAGUGGGACCCA [G40A A78G] was 0.795; that for GGCCGGCAUGGUCCCAGCCUCCUCGCUGGUGCCGGCUGGGCAACAUUCCGAGGGGACCGUCCCCUCGGUAAGGGCGAAUGGGACCCA [C30U U72G] was 0.128; that for GGCCGGCAUGGUCCCAGCCUCCUCGCUGGCGCCGGCUAGGCAACAUUCCGAGGAGACCGUCCCCUCGGUAAUGGCGAAUGGGACCCA [G38A G54A] was 0.273.
Turning to GGCCGGCAUGGUCCCCGCCUCCUCGCUGGCGCCGGCUGGGCAACAUUCCGAGGGGACCGUCCCCUCGGUAAUAGCGAAUGGGACCCA [A16C G73A], the self-cleavage worked out at 0.504.
GGCCGGCAUGGUCCCAGCCUCCUCCCUGGCGCCGGCUGGGCAAUAUUCCGAGGGGACCGUCCCCUCGGUAAUGGCGAAUGGGACCCA [G25C C44U]: the self-cleavage was 0.259.
The value for GGCCGGCAUGGUCCCAGCCUCCUCGCUGGCGCCGGCUGGGCAACAUUCCGAGUGGACCGUCCCCUCGGUAAUGGCGAAUGGUACCCA [G53U G82U] was 0.427; that for GGCCGGCAUGGUCCCAGCCUCCUCGCUGGCGCCGGCUGGCCAACAUACCGAGGGGACCGUCCCCUCGGUAAUGGCGAAUGGGACCCA [G40C U47A] was 0.0845; that for GGCCGGCAUGGUCCCAGCCUCCUCGCUGGCGCCGGCUGGGCAACAUUCCGAGGGGACCGUCCCCUUGGUAAUGGGGAAUGGGACCCA [C66U C75G] was 0.141.
With GGCCGGCAUGGUCCCAGCCUCCUCGCUGGCGCCGGCUGGGCAACAUUCCGAGGGAAGCGUCCCCUCGGUAAUGGCGAAUGGGACCCA [G55A C57G], the self-cleavage was determined as 1.07.
In the case of GGCCGGCAUGGUCCUAGCCUCCUCGCUGGCACCGGCUGGGCAACAUUCCGAGGGGACCGUCCCCUCGGUAAUGGCGAAUGGGACCCA [C15U G31A], the self-cleavage was 0.302.
Turning to GGCGGGCAUGGUCCCAGCCUCUUCGCUGGCGCCGGCUGGGCAACAUUCCGAGGGGACCGUCCCCUCGGUAAUGGCGAAUGGGACCCA [C4G C22U], the self-cleavage is 0.0449.
As to GGCCGCCAUGGUCCCAGCCUCCUCGCUGGCGCCGGCUGGGCAACAUUCCGAGGGGGCCGUCCCCUCGGUAAUGGCGAAUGGGACCCA [G6C A56G], the self-cleavage was 0.453.
Take GGCCGGCAUGGUCCCAGCCUCCUCGCUGGCGCCGGCUGGUCAACAUUCCGAGGGGACCGUCCCCUCGGUAAUGACGAAUGGGACCCA [G40U G74A]: the self-cleavage was determined as 0.415.
In the case of GGCGGGCAUGGUCCCAGCCUCCUCGCUUGCGCCGGCUGGGCAACAUUCCGAGGGGACCGUCCCCUCGGUAAUGGCGAAUGGGACCCA [C4G G28U], the self-cleavage stood at 0.
As to GGCCGGCAUGGCCCCAGGCUCCUCGCUGGCGCCGGCUGGGCAACAUUCCGAGGGGACCGUCCCCUCGGUAAUGGCGAAUGGGACCCA [U12C C18G], the self-cleavage was 0.
The value for GGCCGGCAUGGUACCAGCCUCCUCGCUGGCGCCGGCUGGGCAACAUUCCGAGGGGACCGUCCCCUCGGUAAUGGCGAAUGGCACCCA [C13A G82C] was 0.17; that for GGCCGGCAUGGUCCCAGCCUCCUCGCUGGCGCCGGCUGGGCAUCAUUCCGAGGUGACCGUCCCCUCGGUAAUGGCGAAUGGGACCCA [A43U G54U] was 0.432.
GGCCGGCAUGGUCCCAGCCUCCUCGCUGGCGCCGGCUGGGCAACAUUCCGAGGGGACCGUCACUUCGGUAAUGGCGAAUGGGACCCA [C62A C64U]: the self-cleavage came out at 0.892.
Take GGCCGGCACGGUCCCAGCCUCCUCGCUGGCGCCGGCUGGGCAACAUUCCGAGGGGACCGUUCCCUCGGUAAUGGCGAAUGGGACCCA [U9C C61U]: the self-cleavage worked out at 0.81.
The value for GGCCGGCAGGGUCCCAGACUCCUCGCUGGCGCCGGCUGGGCAACAUUCCGAGGGGACCGUCCCCUCGGUAAUGGCGAAUGGGACCCA [U9G C18A] was 0.0923.
On to GGCCGGCAUGGUCCCAGCCUCCUCGCUGGCGCCGGCUGGGCAACAUGCCGAGGGGACCGUCCCCUCGGUAAUGGCGAAUGGAACCCA [U47G G82A], for which the self-cleavage came to 0.59.
For the variant GGCCGGCAUGGUCCCAGCCUCCUCGCUGGCGCCGGCUGAGCAACAUUCCGAGGGGACCGUCCCCUCGGUAAUGGCGAAUGGGACCUA [G39A C86U], the self-cleavage was found to be 0.513.
The value for GGCCGGCAUCGUCCCAGCCUCCUCGCUGGCGCCGCCUGGGCAACAUUCCGAGGGGACCGUCCCCUCGGUAAUGGCGAAUGGGACCCA [G10C G35C] was 0.102.
Regarding GGCCGGCAUGGUCCCAGCCUCCUCGCUGCCGCCGGCUGGGCAACAUUCCGAGGGGACCGUCCCCUCGGUAAUGGCGAAUGGGAUCCA [G29C C84U], the self-cleavage was 0.032.
Turning to GGCCGGCAUGGUGCCAGCCUCCUCGCUGGCGCCGGCUGGGCAACAAUCCGAGGGGACCGUCCCCUCGGUAAUGGCGAAUGGGACCCA [C13G U46A], the self-cleavage was 0.0615.
In the case of GGCCGGCAUGGUCCCAGCCUCCUCGCUGGCGCCGGCUGGGCAACAUUCCUAGGAGACCGUCCCCUCGGUAAUGGCGAAUGGGACCCA [G50U G54A] it was 0.85; in that of GGCCGGCAUGGUCCCAGCCUCCUCGCUGGCGCCGGCUGGGCAACAUUCCGAGGGGACCGUCCCCUCGGUAAUGGCGGAUGGGCCCCA [A77G A83C], 0.208; in that of GGCCGGCAUGGUCCCAGCCUUCUCGCUUGCGCCGGCUGGGCAACAUUCCGAGGGGACCGUCCCCUCGGUAAUGGCGAAUGGGACCCA [C21U G28U], 0.

The record behind these values is the RNAGym collection of RNA variant scans (doi:10.7554/elife.80360).
